From article PMC3229571, “ZipA Binds to FtsZ with High Affinity and Enhances the Stability of FtsZ Protofilaments” (PLoS ONE, 2011)

Target: the molecule itself
Test: co-sedimentation; FtsZ 6 µM, 50 mM PIPES pH 6.0, 6.8 or 8.0, 1 mM MgCl2, 1 mM GTP, 10 min at 37°C; polymers sedimented at 88,760 x g, 30°C, 30 min; SDS-PAGE of pellets

B1: FtsZ (natural protein, E. coli, UniProt P0A9A6 1-383, looked up)
chain: MFEPMELTNDAVIKVIGVGGGGGNAVEHMVRERIEGVEFFAVNTDAQALRKTAVGQTIQIGSGITKGLGAGANPEVGRNAADEDRDALRAALEGADMVFIAAGMGGGTGTGAAPVVAEVAKDLGILTVAVVTKPFNFEGKKRMAFAEQGITELSKHVDSLITIPNDKLLKVLGRGISLLDAFGAANDVLKGAVQGIAELITRPGLMNVDFADVRTVMSEMGYAMMGSGVASGEDRAEEAAEMAISSPLLEDIDLSGARGVLVNITAGFDLRLDEFETVGNTIRAFASDNATVVIGTSLDPDMNDELRVTVVATGIGMDKRPEITLVTNKQVQQPVMDRYQQHGMAPLTQEQKPVAKVVNDNAPQTAKEPDYLDIPAFLRKQAD
notes: Cell division protein FtsZ, E. coli; no tag is named; also called recombinant E. coli FtsZ; source: E. coli BL21, purified (ammonium sulfate precipitation, desalting, polymerization and depolymerization step)
Q: Does B1 bind?
A: binds
